Measured values reported in paper PMC12102759.

B1: TPTE2 peptide 94-109 (Phosphatidylinositol 3,4,5-trisphosphate 3-phosphatase TPTE2), 16-mer library wild type / TLN1 PTB (TLN1 Phosphotyrosine-binding (PTB) domain, residues 309-401) (parent)
chain 1: DLIFTDSKLYIPLEYR
chain 2: GVSFFLVKEKMKGKNKLVPRLLGITKECVMRVDEKTKEVIQEWNLTNIKRWAASPKSFTLDFGDYQDGYYSVQTTEGEQIAQLIAGYIDIILK
B2: PEX5 peptide 238-253 (Peroxisomal targeting signal 1 receptor), 16-mer library wild type / PEX14 Pex14 (PEX14 PEX14, residues 16-84) (parent)
chain 1: AQAEQWAAEFIQQQGT
chain 2: TPGSENVLPREPLIATAVKFLQNSRVRQSPLATRRAFLKKKGLTDEEIDMAFQQSGTAADEPSSLGPAT

Variants of: B1
Test: proteomic peptide phage display deep mutational scan (ProP-PD DMS): M13 P8 16-mer library selected against immobilised GST-tagged bait for four days (rounds), NGS of the eluted pools per day and pseudo-replica
Conditions: with TLN1 PTB (TLN1 Phosphotyrosine-binding (PTB) domain, residues 309-401); bait immobilised on MaxiSorp plates (10 µg), library pre-cleared on GST, 2 h binding at 4 °C, five washes; one round per day, days 1-4; value from days 2 and 3; keep out of graded; scale: average fractional NGS count over selection days 2 and 3

Screen value, by site and new letter:
chain 1 D6: N 6.84e-05, G 0, H 3.45e-05, W 3.79e-05, S 0.000216, E 0.000625, A 3.11e-05, M 0, T 0.000144, Y 3.05e-05
chain 1 E14: L 6.19e-05, F 9.64e-05, D 0.00114, G 0.00107, A 0.00053, K 0.000193, H 9.43e-05
chain 1 D1: E 0.000184, H 0, P 0.00123, A 9.19e-05, I 0, T 0.000148, W 4.41e-05, N 7.86e-05, G 0.00013, S 0.000249, F 2.74e-05, K 0, Q 3.51e-05

Variants of: B2
Test: as above
Conditions: with PEX14 Pex14 (PEX14 PEX14, residues 16-84); bait immobilised on MaxiSorp plates (10 µg), library pre-cleared on GST, 2 h binding at 4 °C, five washes; one round per day, days 1-4; value from days 2 and 3; keep out of graded; scale: average fractional NGS count over selection days 2 and 3

Screen value of substitutions, site by site:
chain 1 A7: I 0.000152, G 0.00166, F 0.000286, L 0.00129, Y 0.00359, R 0.00151, H 0.00597, N 0, S 0.00111, D 0, V 0
chain 1 Q2: P 0.00113, E 0, N 7.71e-05, R 7.71e-05, A 0, S 0.000758, T 0.000198
chain 1 Q14: T 0, H 0.000732, E 0, V 0.000266, G 0.00214, K 0, F 0.000215, R 0.0013, W 0.000797, S 0.00134, D 0.000186, I 0.00105
chain 1 T16: N 0.000881, E 0, Q 0.00068, W 0.00013, H 0.00132, M 0.000253, A 0.000218, L 0.000704, V 0.00206, G 0, D 0.000181, P 0.000382, S 0.000223
chain 1 E9: D 0.00183, T 0.00204, H 0.0023, G 0.000159, S 0.000566, I 0, Q 0.000716, M 0.000215, K 0.0012, A 0.00516
chain 1 Q12: T 0.000592, P 0.000699, K 0.000341, M 0.00226, R 0, F 0.000147, L 0.000406, V 0.000188, W 0.000355, E 0, A 0, G 0.000368, S 0.00055
chain 1 G15: D 0.000327, V 0.000135, W 0.000703, I 0, R 0.000288, K 0, Y 0, S 0.000212
chain 1 A3: Y 0.000443
chain 1 A8: L 0.00137, S 0.000444, P 0, F 0.00013, G 0.00272, Q 0.00013, R 0.000559, W 0.00148, M 0.0014, V 0.00138, D 0
chain 1 E4: M 0.000893, Y 0.000168, G 0.00183, K 0.00104, I 0.000318, V 0, A 0.000155, W 0.00183
chain 1 F10: H 0.014, Q 0.000673, S 0.000175, I 0.000137, Y 0.000488, W 0.00148
chain 1 I11: F 0.000739, G 0.000289, Q 0.00134, H 0.00108, V 0, Y 0.000717, P 0.00284, D 0.00263, W 0, S 0.000456, E 0.00192, T 0.000576, K 0.000266
chain 1 Q5: E 0, T 0.00028, H 0.000302, I 7.71e-05, W 0, F 0, K 0, S 0.000207, N 9.07e-05, A 0.000195
chain 1 W6: L 0, F 0.000898
chain 1 Q13: F 0.000134, Y 0.000125, K 0, S 0, M 0.000454, D 0.000183, G 0.000627, A 0.00172, R 0.00284, H 0, T 0.000335, L 0.00111
